Positions count from the first letter of the chain named.

From US20030186334A1, “KTS-disintegrins” (Temple University - Of the Commonwealth System of Higher …, priority 2001, published 2003) come the findings set out here.

The chains are these.
T1: mouse α1β1 integrin (mouse), Q3V3R4
T1 chain 1: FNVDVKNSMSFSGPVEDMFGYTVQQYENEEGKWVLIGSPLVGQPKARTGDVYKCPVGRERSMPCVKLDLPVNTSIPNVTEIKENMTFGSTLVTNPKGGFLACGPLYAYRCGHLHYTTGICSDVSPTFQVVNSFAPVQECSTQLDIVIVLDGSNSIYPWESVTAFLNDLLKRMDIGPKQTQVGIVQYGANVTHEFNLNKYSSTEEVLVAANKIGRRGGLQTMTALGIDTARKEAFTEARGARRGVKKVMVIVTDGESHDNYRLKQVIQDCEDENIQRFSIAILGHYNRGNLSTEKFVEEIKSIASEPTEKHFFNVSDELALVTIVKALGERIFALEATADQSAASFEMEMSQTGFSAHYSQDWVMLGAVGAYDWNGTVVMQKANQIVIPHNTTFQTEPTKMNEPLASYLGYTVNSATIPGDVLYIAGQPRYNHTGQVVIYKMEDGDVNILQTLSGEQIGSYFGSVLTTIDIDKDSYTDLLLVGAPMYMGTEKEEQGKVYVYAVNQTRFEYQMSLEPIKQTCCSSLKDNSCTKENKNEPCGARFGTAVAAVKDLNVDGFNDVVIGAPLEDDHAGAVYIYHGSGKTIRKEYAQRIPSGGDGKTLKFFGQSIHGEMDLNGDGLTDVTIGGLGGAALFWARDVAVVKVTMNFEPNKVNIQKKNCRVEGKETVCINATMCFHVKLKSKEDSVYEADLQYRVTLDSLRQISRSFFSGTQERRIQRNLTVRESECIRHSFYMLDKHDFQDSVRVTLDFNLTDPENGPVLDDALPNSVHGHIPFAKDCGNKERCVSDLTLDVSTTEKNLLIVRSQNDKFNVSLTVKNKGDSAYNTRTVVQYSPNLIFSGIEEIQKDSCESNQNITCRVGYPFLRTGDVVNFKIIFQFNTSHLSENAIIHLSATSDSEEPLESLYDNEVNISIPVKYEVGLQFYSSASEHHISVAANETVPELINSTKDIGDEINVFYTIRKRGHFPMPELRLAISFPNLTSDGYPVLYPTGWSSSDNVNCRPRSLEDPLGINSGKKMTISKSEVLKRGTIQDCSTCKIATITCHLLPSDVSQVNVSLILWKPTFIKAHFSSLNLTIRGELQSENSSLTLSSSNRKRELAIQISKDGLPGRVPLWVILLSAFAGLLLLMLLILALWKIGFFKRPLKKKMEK
T1 chain 2: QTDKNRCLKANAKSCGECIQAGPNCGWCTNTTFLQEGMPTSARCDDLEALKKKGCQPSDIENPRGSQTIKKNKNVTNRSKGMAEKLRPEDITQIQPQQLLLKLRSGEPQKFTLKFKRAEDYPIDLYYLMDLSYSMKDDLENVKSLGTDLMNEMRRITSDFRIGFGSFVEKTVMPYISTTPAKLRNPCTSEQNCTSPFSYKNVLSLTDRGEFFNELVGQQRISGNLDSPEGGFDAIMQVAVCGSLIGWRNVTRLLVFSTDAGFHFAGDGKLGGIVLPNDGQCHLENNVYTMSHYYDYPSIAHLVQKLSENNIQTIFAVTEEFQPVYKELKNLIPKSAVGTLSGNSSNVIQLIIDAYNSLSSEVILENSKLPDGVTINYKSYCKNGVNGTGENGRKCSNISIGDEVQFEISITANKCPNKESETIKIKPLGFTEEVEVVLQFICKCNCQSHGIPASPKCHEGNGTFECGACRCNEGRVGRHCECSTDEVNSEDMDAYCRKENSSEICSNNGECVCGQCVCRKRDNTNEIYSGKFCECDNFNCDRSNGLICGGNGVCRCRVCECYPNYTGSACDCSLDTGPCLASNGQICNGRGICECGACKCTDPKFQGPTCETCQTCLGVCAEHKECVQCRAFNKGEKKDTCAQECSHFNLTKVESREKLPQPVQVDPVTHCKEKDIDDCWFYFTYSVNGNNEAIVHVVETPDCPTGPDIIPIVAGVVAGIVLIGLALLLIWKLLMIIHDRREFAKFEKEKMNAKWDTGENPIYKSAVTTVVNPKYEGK

T2: αvβ3 integrin, P06756
T2 chain 1: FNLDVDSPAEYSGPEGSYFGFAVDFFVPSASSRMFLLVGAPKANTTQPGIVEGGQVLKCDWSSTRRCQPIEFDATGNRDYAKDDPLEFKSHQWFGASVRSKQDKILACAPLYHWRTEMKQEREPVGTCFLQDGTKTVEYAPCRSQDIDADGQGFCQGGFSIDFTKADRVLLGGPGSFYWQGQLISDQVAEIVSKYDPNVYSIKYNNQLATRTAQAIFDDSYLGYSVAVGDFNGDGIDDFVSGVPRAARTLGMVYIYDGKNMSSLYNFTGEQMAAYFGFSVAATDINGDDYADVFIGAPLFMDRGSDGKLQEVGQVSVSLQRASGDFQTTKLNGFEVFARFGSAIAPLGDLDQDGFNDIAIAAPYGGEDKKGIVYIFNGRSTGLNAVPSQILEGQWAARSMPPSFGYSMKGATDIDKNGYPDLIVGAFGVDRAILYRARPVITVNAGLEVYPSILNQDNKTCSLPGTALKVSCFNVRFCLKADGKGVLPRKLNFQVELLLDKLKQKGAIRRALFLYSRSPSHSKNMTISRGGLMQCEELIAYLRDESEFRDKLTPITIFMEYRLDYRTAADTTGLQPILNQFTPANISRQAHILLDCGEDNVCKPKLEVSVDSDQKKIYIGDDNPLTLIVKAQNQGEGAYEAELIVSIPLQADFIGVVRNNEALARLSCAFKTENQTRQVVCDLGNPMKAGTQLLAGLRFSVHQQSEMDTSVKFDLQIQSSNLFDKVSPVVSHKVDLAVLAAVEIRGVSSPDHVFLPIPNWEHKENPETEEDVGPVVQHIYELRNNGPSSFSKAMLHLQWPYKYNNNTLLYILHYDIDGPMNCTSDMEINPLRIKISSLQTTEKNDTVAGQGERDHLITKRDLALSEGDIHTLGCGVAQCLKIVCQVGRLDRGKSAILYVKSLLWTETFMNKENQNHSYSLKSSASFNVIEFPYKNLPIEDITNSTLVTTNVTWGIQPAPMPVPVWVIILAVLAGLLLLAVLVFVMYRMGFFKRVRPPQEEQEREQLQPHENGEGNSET
T2 chain 2: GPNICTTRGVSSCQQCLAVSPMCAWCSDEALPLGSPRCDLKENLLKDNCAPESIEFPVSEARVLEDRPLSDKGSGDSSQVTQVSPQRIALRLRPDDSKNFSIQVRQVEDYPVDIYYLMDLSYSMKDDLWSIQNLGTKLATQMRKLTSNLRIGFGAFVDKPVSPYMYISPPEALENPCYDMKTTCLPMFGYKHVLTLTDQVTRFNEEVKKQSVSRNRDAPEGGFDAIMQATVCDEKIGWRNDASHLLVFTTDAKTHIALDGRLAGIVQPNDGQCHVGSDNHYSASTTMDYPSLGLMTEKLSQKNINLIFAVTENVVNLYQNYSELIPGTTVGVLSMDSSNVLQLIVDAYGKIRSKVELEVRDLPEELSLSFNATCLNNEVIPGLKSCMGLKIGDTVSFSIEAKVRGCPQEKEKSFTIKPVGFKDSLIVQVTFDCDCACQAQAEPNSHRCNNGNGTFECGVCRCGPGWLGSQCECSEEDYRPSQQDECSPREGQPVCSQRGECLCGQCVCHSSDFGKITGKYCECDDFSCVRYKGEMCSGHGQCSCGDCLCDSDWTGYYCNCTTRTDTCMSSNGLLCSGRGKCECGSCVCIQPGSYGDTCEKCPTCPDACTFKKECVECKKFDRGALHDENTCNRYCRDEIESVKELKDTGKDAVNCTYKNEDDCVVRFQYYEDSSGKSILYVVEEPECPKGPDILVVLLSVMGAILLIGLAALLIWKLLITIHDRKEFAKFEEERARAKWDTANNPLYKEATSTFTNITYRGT

B1: obtustatin (peptide)
peptide: CTTGPCCRQCKLKPAGTTCWKTSLTSHYCTGKSCDCPLYPG
modifications: not checked
B2: viperisrastatin (peptide)
peptide: B1 peptide with L24R, L38V, P40Q
modifications: not checked
B3: eristostatin, P0C6S4 1-49 (peptide)
peptide: QEEPCATGPCCRRCKFKRAGKVCRVARGDWNDDYCTGKSCDCPKNPWNG
modifications: not checked
B4: echistatin, P17347 131-179 (peptide)
peptide: QCESGPCCRNCKFLKEGTICKRARGDDMDDYCNGKTCDCPRNPHKGPAT
modifications: not checked
B5: synthetic peptide … (SEQ ID NO: 5) (peptide)
peptide: CWKTSLTSHYC
modifications: not checked

For one assay, the target named is α9β1 integrin, Q13797. As to the kind of experiment: inhibition of adhesion of SW480α9 cells to VCAM-1.
Chain of α9β1 integrin, Q13797 (Q13797 30-1035): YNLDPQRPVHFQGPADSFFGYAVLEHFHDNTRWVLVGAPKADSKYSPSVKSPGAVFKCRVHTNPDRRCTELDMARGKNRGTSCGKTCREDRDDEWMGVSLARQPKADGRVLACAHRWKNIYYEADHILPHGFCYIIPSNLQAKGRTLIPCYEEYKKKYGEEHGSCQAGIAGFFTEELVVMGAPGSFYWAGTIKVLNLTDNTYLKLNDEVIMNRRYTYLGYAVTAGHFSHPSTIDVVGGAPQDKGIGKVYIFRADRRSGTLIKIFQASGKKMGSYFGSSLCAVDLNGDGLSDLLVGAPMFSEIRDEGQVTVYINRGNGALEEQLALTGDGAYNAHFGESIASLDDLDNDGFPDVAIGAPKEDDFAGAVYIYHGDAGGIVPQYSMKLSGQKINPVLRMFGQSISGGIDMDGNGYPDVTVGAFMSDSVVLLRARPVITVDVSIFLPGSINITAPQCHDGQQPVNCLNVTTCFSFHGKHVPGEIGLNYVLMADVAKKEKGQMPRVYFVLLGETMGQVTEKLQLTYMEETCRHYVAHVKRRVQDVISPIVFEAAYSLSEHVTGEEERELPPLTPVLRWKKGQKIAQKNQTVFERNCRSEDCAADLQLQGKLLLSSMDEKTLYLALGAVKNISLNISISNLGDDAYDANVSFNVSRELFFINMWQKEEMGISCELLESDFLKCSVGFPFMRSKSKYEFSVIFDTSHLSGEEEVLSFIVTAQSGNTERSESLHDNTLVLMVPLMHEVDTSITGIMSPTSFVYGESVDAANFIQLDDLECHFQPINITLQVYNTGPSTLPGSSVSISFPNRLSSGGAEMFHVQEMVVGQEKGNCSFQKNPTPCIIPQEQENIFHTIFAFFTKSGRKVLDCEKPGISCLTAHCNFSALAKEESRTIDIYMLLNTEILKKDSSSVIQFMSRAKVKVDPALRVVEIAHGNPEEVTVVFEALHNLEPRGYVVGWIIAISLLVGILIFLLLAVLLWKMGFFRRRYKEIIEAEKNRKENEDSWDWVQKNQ
With B1, the IC50 (commonly the point on the concentration scale where inhibition reaches its midpoint) was over 10 µM.

B2 had an IC50 of over 10 µM.

In turn, B3 had an IC50 of over 10 µM.

In the case of B4, the half-inhibitory concentration (IC50) was over 10 µM.

For another assay, the target named is αIIbβ3 integrin, P08514. The experiment in a line: inhibition of adhesion of A5 cells to fibrinogen.
B2 registered a concentration for half-maximal inhibition (IC50) of over 10 µM.

As to B3, the IC50 was 0.05 µM.

A further assay concerns the target αIIbβ3 integrin, P08514. As to the kind of experiment: inhibition of adhesion of A5 cells to fibrinogen. The source holds these as a separate data set.
In the case of B1, the half-maximal inhibitory concentration (IC50) is over 10 µM.

B3: the half-inhibitory concentration (IC50) came to 0.005 µM.

B4 displayed an IC50 of 0.05 µM.

The next assay deals with α5β1 integrin, P08648. As to the kind of experiment: inhibition of adhesion of K562 cells to fibronectin.
Target sequence in this assay (P08648 42-1049): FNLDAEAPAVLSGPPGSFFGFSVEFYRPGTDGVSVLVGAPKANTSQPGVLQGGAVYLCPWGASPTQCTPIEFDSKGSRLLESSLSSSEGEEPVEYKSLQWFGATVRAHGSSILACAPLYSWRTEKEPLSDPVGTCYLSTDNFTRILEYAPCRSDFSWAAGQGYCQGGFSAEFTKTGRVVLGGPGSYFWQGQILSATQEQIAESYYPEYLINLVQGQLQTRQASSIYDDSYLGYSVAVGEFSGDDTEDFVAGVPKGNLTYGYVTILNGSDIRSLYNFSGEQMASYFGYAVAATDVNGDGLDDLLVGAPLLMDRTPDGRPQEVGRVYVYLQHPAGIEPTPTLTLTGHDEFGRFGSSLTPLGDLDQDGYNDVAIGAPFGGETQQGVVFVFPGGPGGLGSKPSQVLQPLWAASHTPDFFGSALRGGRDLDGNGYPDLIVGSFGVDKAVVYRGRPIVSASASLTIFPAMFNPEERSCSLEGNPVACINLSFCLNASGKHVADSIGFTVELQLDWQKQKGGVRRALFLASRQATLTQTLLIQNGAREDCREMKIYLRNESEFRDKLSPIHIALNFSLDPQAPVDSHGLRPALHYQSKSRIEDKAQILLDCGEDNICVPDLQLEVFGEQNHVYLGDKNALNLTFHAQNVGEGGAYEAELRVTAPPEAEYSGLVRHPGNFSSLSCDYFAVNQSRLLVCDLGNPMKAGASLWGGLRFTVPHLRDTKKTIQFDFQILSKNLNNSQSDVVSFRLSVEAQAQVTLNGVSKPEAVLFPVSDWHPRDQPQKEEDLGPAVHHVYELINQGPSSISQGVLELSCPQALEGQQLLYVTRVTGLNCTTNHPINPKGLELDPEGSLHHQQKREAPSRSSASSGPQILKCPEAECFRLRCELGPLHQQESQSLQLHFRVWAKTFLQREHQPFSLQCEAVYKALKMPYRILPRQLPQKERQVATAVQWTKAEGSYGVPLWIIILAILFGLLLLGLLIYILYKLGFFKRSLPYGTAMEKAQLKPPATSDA
B1 came in with an IC50 of over 10 µM.

Take B3: the IC50 was over 10 µM.

As for B4, the IC50 was 0.05 µM.

In another assay the target is human α1β1 integrin (human), P56199. As to the kind of experiment: inhibition of adhesion of HS.939T cells to collagen IV.
Regarding B1, the IC50 was 0.1 nM.

B2: the IC50 came out at 0.002 nM.

B3 yielded an IC50 of over 10000 nM.

B4 returned a half-inhibitory concentration (IC50) of over 10000 nM.

For another assay the target is unchanged. As to the kind of experiment: inhibition of adhesion of α1K562 cells to immobilised collagen IV.
With B1, the IC50 was determined as 0.002 µM.

In turn, B5 had a half-inhibitory concentration (IC50) of 600 µM.

For another assay, the target named is T1, mouse α1β1 integrin (mouse), Q3V3R4. As to the kind of experiment: inhibition of adhesion of B16F10 cells to collagen IV.
Molecule B1 showed an IC50 of 0.0002 µM.

With B2, the IC50 came to 0.00025 µM.

Turning to B3, the IC50 was over 10 µM.

Molecule B4 came in with a 50% inhibitory concentration (IC50) of over 10 µM.

The target in a further assay is human α1β1 integrin (human), P56199. The experiment in a line: inhibition of adhesion of α1K562 cells to collagen IV.
B1 had an IC50 of 2 nM.

In the case of B2, the 50% inhibitory concentration (IC50) was found to be 0.08 nM.

B3: the half-inhibitory concentration (IC50) was over 10000 nM.

In turn, B4 displayed a 50% inhibitory concentration (IC50) of over 10000 nM.

For the next assay, the target named is α2β1 integrin, P17301. The experiment in a line: inhibition of adhesion of α2K562 cells to collagen I.
Turning to B1, the 50% inhibitory concentration (IC50) is over 10 µM.

B2 had an IC50 of over 10 µM.

B3 yielded an IC50 of over 10 µM.

For the molecule B4, the IC50 was over 10 µM.

A further assay has as its target T2, αvβ3 integrin, P06756. As to the kind of experiment: inhibition of adhesion of JY cells to vitronectin.
Molecule B1 yielded a half-maximal inhibitory concentration (IC50) of over 10 µM.

In turn, B2 had an IC50 of over 10 µM.

In the case of B3, the IC50 amounted to 2 µM.

Take B4: the concentration for half-maximal inhibition (IC50) turned out to be 0.0001 µM.

Another assay concerns the target human α1β1 integrin (human), P56199. As to the kind of experiment: inhibition of adhesion of α1K562 cells to collagen I.
The molecule B1 came in with an IC50 of 0.5 nM.

The molecule B2 had a half-maximal inhibitory concentration (IC50) of 0.02 nM.

With B3, the half-maximal inhibitory concentration (IC50) was over 10000 nM.

The molecule B4 had an IC50 of over 10000 nM.

The next assay addresses α5β1 integrin, P08648. As to the kind of experiment: inhibition of adhesion of K562 cells to fibronectin. The source holds these as a separate data set.
Target sequence in this assay (P08648 42-1049, chain 1 of 2): as the sequence (P08648 42-1049) above
Target sequence in this assay (P05556 21-798, chain 2 of 2, further chain): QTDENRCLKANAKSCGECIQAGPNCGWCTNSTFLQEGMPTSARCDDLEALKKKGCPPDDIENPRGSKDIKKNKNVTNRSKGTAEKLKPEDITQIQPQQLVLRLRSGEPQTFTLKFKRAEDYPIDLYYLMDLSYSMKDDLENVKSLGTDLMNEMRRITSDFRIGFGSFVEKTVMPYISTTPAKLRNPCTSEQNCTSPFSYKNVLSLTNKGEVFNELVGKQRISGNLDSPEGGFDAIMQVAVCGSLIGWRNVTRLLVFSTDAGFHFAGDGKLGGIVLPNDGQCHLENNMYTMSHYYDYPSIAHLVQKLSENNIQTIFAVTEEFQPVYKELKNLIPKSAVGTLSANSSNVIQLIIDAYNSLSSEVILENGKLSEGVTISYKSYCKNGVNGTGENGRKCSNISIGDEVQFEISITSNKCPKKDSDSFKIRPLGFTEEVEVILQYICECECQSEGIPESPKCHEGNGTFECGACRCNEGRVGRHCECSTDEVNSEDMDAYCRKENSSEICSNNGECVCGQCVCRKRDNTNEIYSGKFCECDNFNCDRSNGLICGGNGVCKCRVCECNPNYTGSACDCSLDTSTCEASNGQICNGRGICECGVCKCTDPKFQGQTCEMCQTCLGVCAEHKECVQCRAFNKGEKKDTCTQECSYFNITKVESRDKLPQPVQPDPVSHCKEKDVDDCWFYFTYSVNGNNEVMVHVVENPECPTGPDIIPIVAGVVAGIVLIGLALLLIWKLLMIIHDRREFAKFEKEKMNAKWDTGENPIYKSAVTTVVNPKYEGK
In turn, B1 had an IC50 of over 5 µM.

In turn, B2 returned a half-maximal inhibitory concentration (IC50) of over 10 µM.

The target of another assay is α4β1 integrin, P13612. The experiment in a line: inhibition of adhesion of Jurkat cells to VCAM-1.
For B1, the IC50 was over 10 µM.

B2 returned an IC50 of over 10 µM.

B3: the IC50 was over 10 µM.

B4: the half-inhibitory concentration (IC50) was over 10 µM.
